± gives the uncertainty stated by the source.
B1: Zinc finger homeobox protein 4, residues 2183 to 2238; numbered along this chain, Q86UP3 (parent)
chain: SSRTRFTDYQLRVLQDFFDTNAYPKDDEIEQLSTVLNLPTRVIVVWFQNARQKARK

Variants of: B1
Assay: abundance fitness (aPCA) (normalised: wild type 0, dead -1); higher = more abundant; growth selection in yeast, the domain comes from the species named
Conditions: Homo sapiens

Row | Variant | abundance fitness
1 | L32K | -0.735 ± 0.19
2 | L32W | -0.399 ± 0.09
3 | L32F | -0.207 ± 0.11
4 | L32T | -1.05 ± 0.17
5 | L32Y | -0.118 ± 0.15
6 | L32N | -0.683 ± 0.22
7 | L32D | -0.531 ± 0.17
8 | L32S | -0.924 ± 0.1
9 | L32C | -0.548 ± 0.12
10 | L32P | -0.797 ± 0.14
11 | L32G | -0.973 ± 0.098
12 | L32A | -0.659 ± 0.097
13 | L32V | -0.235 ± 0.079
14 | L32Q | -0.751 ± 0.15
15 | L32R | -0.861 ± 0.1
16 | L32I | -0.156 ± 0.15
17 | L32H | -1.12 ± 0.29
18 | L32M | -0.019 ± 0.11
19 | L32E | -0.723 ± 0.12
20 | V35C | 0.02 ± 0.17
21 | V35I | -0.207 ± 0.19
22 | V35H | -0.006 ± 0.17
23 | V35E | -0.153 ± 0.1
24 | V35D | -0.222 ± 0.16

Row | Variant | abundance fitness
25 | V35F | -0.206 ± 0.16
26 | V35G | 0.043 ± 0.076
27 | K25W | -0.387 ± 0.13
28 | K25Y | -0.76 ± 0.18
29 | K25V | -0.068 ± 0.082
30 | Q31C | -0.221 ± 0.13
31 | Q31W | -0.184 ± 0.097
32 | Q31G | -0.098 ± 0.072
33 | Q31S | -0.042 ± 0.11
34 | Q31H | -0.263 ± 0.23
35 | Q31P | -0.343 ± 0.14
36 | Q31A | -0.188 ± 0.094
37 | Q31N | -0.444 ± 0.22
38 | Q31Y | -0.085 ± 0.18
39 | Q31F | -0.028 ± 0.15
40 | Q31M | -0.212 ± 0.12
41 | Q31T | -0.252 ± 0.13
42 | Q31K | 0.037 ± 0.15
43 | Q31I | -0.316 ± 0.18
44 | Q31V | -0.206 ± 0.079
45 | Q31R | -0.023 ± 0.077
46 | Q31L | -0.278 ± 0.087
47 | I29N | -0.809 ± 0.29
48 | I29E | -0.614 ± 0.13

Row | Variant | abundance fitness
49 | I29P | -1.23 ± 0.2
50 | I29Y | 0.004 ± 0.13
51 | I29M | -0.03 ± 0.11
52 | I29K | -0.576 ± 0.17
53 | I29G | -0.88 ± 0.11
54 | I29C | -0.015 ± 0.15
55 | I29A | -0.266 ± 0.096
56 | I29F | -0.152 ± 0.11
57 | I29R | -0.692 ± 0.089
58 | I29Q | -0.447 ± 0.12
59 | I29H | -0.633 ± 0.2
60 | I29D | -0.876 ± 0.23
61 | I29S | -0.702 ± 0.11
62 | I29V | -0.174 ± 0.083
63 | I29T | -0.256 ± 0.11
64 | I29W | -0.352 ± 0.12
65 | I29L | -0.023 ± 0.083
66 | E28V | -0.34 ± 0.082
67 | E28R | -0.25 ± 0.075
68 | E28S | -0.18 ± 0.094
69 | E28K | -0.011 ± 0.16
70 | E28H | -0.188 ± 0.16
71 | E28Q | 0.061 ± 0.15
72 | E28F | -0.448 ± 0.15

Row | Variant | abundance fitness
73 | E28C | -0.18 ± 0.11
74 | E28M | -0.507 ± 0.17
75 | E28Y | -0.341 ± 0.14
76 | E28A | -0.036 ± 0.094
77 | E28D | 0.031 ± 0.14
78 | E28W | -0.596 ± 0.11
79 | E28T | -0.069 ± 0.13
80 | E28I | -0.741 ± 0.23
81 | E28G | -0.207 ± 0.076
82 | E28N | -0.287 ± 0.14
83 | S33I | -1.04 ± 0.21
84 | S33G | -0.23 ± 0.22
85 | S33P | -0.675 ± 0.15
86 | S33T | -0.005 ± 0.13
87 | S33F | -0.897 ± 0.19
88 | S33Q | -0.134 ± 0.31
89 | S33M | -0.35 ± 0.22
90 | S33K | -0.82 ± 0.4
91 | S33R | -0.486 ± 0.19
92 | S33V | -0.595 ± 0.3
93 | S33H | -0.003 ± 0.21
94 | S33D | -0.884 ± 0.36
95 | S33E | -0.209 ± 0.31
96 | S33C | -0.357 ± 0.19

Row | Variant | abundance fitness
97 | S33N | -0.257 ± 0.14
98 | S33L | -0.946 ± 0.25
99 | S33Y | -0.749 ± 0.23
100 | D26Y | -0.234 ± 0.22
101 | D26W | -0.047 ± 0.1
102 | D26N | -0.114 ± 0.15
103 | D26R | -0.05 ± 0.083
104 | D26H | -0.021 ± 0.19
105 | D26I | -0.427 ± 0.22
106 | D26A | 0.003 ± 0.1
107 | D26P | -0.193 ± 0.14
108 | D26S | -0.049 ± 0.09
109 | D26F | -0.087 ± 0.17
110 | D26M | -0.056 ± 0.15
111 | D26E | -0.163 ± 0.12
112 | D26T | -0.071 ± 0.16
113 | D26V | -0.048 ± 0.086
114 | D26L | -0.257 ± 0.11
115 | D26G | 0.005 ± 0.085
116 | D26K | 0.067 ± 0.13
117 | D26Q | -0.031 ± 0.13
118 | D26C | -0.255 ± 0.2
119 | T34S | -0.066 ± 0.085
120 | T34H | 0.049 ± 0.14

Row | Variant | abundance fitness
121 | T34Q | -0.128 ± 0.11
122 | T34F | 0.062 ± 0.14
123 | T34G | -0.134 ± 0.074
124 | T34A | -0.049 ± 0.084
125 | T34R | -0.069 ± 0.081
126 | T34N | -0.183 ± 0.14
127 | T34M | -0.145 ± 0.12
128 | T34P | -0.347 ± 0.11
129 | T34D | -0.162 ± 0.11
130 | T34C | -0.106 ± 0.11
131 | T34K | 0.045 ± 0.12
132 | T34Y | -0.061 ± 0.14
133 | T34I | -0.256 ± 0.13
134 | T34E | -0.165 ± 0.11
135 | T34L | -0.004 ± 0.077
136 | T34W | -0.244 ± 0.13
137 | D27A | -0.378 ± 0.37
138 | D27H | 0.048 ± 0.33
139 | D27L | -0.004 ± 0.26
140 | D27Q | 0.08 ± 0.28
141 | D27N | 0.001 ± 0.21
142 | D27V | -0.375 ± 0.3
143 | D27K | -0.029 ± 0.4
144 | D27G | 0.162 ± 0.26

Row | Variant | abundance fitness
145 | D27T | -0.256 ± 0.32
146 | D27R | -0.038 ± 0.41
147 | D27S | -0.009 ± 0.22
148 | D27Y | -0.171 ± 0.2
149 | D27F | 0.019 ± 0.26
150 | D27M | -0.012 ± 0.36
151 | E30W | -0.366 ± 0.12
152 | E30M | 0.201 ± 0.1
153 | E30C | -0.18 ± 0.13
154 | E30F | -0.132 ± 0.15
155 | E30Q | 0.175 ± 0.14
156 | E30H | 0.008 ± 0.14
157 | E30T | -0.046 ± 0.12
158 | E30V | -0.119 ± 0.079
159 | E30Y | -0.366 ± 0.2
160 | E30D | 0.08 ± 0.12
161 | E30G | 0.059 ± 0.075
162 | E30I | -0.221 ± 0.19
163 | E30R | 0.031 ± 0.079
164 | E30P | -0.463 ± 0.12
165 | E30L | -0.057 ± 0.098
166 | E30N | -0.166 ± 0.15
167 | E30K | -0.154 ± 0.15

Source: the Human Domainome abundance scans (Beltran et al. 2025)
